{
  "source": "paper PMC12622831",
  "key": {"[1]": {"target": "Dengue virus serotype 2 (ET300 strain) non-structural protein 1, C-terminally His-tagged, purified (Dengue virus serotype 2, strain ET300)", "test": "SEC; purified His-tagged NS1, 0.5 mL on Superdex 200 increase 10/300 GL in PBS; fractions analysed by NS1 ELISA"}, "[2]": {"target": "Dengue virus serotype 2 (ET300 strain) non-structural protein 1, untagged recombinant, expressed in suspension HEK293 cells (Dengue virus serotype 2, strain ET300)", "test": "SEC; concentrated (about 10-fold, 520 μg/mL) NS1 expression medium, 0.5 mL on Superdex 200 increase 10/300 GL in PBS at 0.75 mL per min; NS1 in 0.25 mL fractions by ELISA and immunoblot"}},
  "data": [
    {"substance": "Dengue virus serotype 2 (ET300 strain) non-structural protein 1, C-terminally His-tagged, purified (natural protein)", "values": [
      {"measurement": "stoichiometry N", "setting": "[1]", "result": 6}
    ]},
    {"substance": "Dengue virus serotype 2 (ET300 strain) non-structural protein 1, untagged recombinant, expressed in suspension HEK293 cells (natural protein)", "values": [
      {"measurement": "stoichiometry N", "setting": "[2]", "result": 6}
    ]}
  ]
}
